Reference: patent US8852569B2, “Prevention and treatment of itch with cysteine protease inhibition” (The General Hospital Corporation, priority 2008, dated 2014)

B1: cathepsin K: recombinant human cysteine protease, expressed in E. coli as zymogen and cleaved to active enzyme (protein)
chain: APDSVDYRKKGYVTPVKNQGQCGSCWAFSSVGALEGQLKKKTGKLLNLSPQNLVDCVSENDGCGGGYMTNAFQYVQKNRGIDSEDAYPYVGQEESCMYNPTGKAAKCRGYREIPEGNEKALKRAVARVGPVSVAIDASLTSFQFYSKGVYYDESCNSDNLNHAVLAVGYGIQKGNKHWIIKNSWGENWGNKGYILMARNKNNACGIANLASFPKM
B2: cathepsin S: recombinant human cysteine protease, expressed in E. coli as zymogen and cleaved to active enzyme (protein)
chain: LPDSVDWREKGCVTEVKYQGSCGACWAFSAVGALEAQLKLKTGKLVSLSAQNLVDCSTEKYGNKGCNGGFMTTAFQYIIDNKGIDSDASYPYKAMDQKCQYDSKYRAATCSKYTELPYGREDVLKEAVANKGPVSVGVDARHPSFFLYRSGVYYEPSCTQNVNHGVLVVGYGDLNGKEYWLVKNSWGHNFGEEGYIRMARNKGNHCGIASFPSYPEI

Assays:
[1] = Chromogenic substrate assay, protease activity of the purified recombinant cathepsins; format: biochemical; settings: FIG. 1; protease 0.84 μM
Method: The concentrations of all the three proteases are at 0.84 μM and that of E64, a non-selective irreversible inhibitor of cysteine proteases, is at 2 μM […].
Papain served as a positive control cysteine protease. The cathepsin S and K were further evaluated for their capacity to activate PAR receptors as noted below.

PAR4 = test: PAR activation by cytoplasmic calcium release in transfected HeLa cells (Fura-2 ratiometric imaging), PAR4; format: cell-based, human
Method: (§1) The responses to PAR 2 and 4 were blocked by the protease inhibitor E64 (10 μM) as a control). Other controls included vector alone and vector encoding the PAR1 receptor. Cathepsin S was added as indicated. The averages from at least three separate experiments were then combined +/−SD.
(§2) Salmon sperm (SS) DNA is used as control. The averages from at least three separate experiments were then combined +/−SD.
(§3) PAR activation observed by cytoplasmic calcium release—The four human PAR cDNAs were obtained from commercial sources and cloned into the pcDNA3.1(−) vector (INVITROGEN™ Inc.). HeLa cells were transfected with 10 μg of vector cDNA using Lipofectamine 2000 (INVITROGEN™ Inc.) and cultured for two days in 96-well glass bottom plates at 30,000 cells/well. Cells were loaded with Fura-2 as follows. The medium was aspirated and replaced with 100 μl of complete DMEM containing 2 μM Fura-2 (INVITROGEN™ Inc.) and kept at room temperature in the dark for 1 hr. The medium was again aspirated and each well received 90 μl of HEPES buffered saline (20 mM HEPES, 115 mM NaCl, 5.4 mM KCl, 2 mM CaCl2, 0.8 mM MgCl2, 13.8 mM glucose, pH 7.4). Plates were observed using a Zeiss Axiovert 200M microscope equipped with a filter wheel for monitoring excitation at 340 and 380 nm. Axiovision software, version 4.6 was used to analyze ratiometric calcium imaging of the cells. […]

PAR2 = test: PAR activation by cytoplasmic calcium release in transfected HeLa cells (Fura-2 ratiometric imaging), PAR2; format: cell-based, human
Method: as §1, §2, §3

human volunteers = test: Itch evoked by inactivated cowhage spicules reconstituted with cathepsin S, inserted into skin; format: in vivo
Method: Recombinant cathepsin S also evokes itch in human volunteers. In this experiment, native itch-evoking spicules from the plant Mucuna pruriens were inactivated by autoclaving for 1 hour and reconstituted with recombinant cathepsin S. Typically, 50 mg of inactivated spicules were mixed with 0.4 ml of 1 mg of recombinant cathepsin S in 0.1M NaCl with 0.01 M L-cysteine in a 2 ml microfuge tube, vortexed, dried in a Speed-vac for 2 hours at room temperature, vortexed again and transferred to a new tube. This second vortex step allowed for precipitated salt to be separated from the spicules. These spicules were then considered ‘reconstituted’ with the cathepsin S. Individual spicules were then superficially inserted approximately 0.2 mm into the skin of volunteers who rated the subsequent itch as “very strong”. The mean perceived intensity of itch and nociceptive sensation evoked by a single inactivated spicule reconstituted with cathepsin S on nine human volunteers is shown in FIG. 3A. The mean perceived intensity is similar with that for itch and nociceptive sensation evoked by a single spicule of native cowhage for the same nine volunteers.

PAR1 = test: PAR activation by cytoplasmic calcium release in transfected HeLa cells (Fura-2 ratiometric imaging), PAR1; format: cell-based, human; settings: HeLa cells transfected with PAR1
Method: as §1
as §3, with “cells. Ten μl of a 21 μM solution of recombinant human cathepsin S were applied approximately 20 seconds after the start of excitation.” for “cells.”

[2] = cathepsin S 30 nM versus mucunain

| Molecule | capacity to cleave the chromogenic substrate Z-Phe-Arg-pNA [1] | concentration at which strong activation of PAR4 occurred (calcium flux) (PAR4; HeLa cells transfected with PAR4) [nM] | activating concentration relative to that needed for stimulation via mucunain, PAR4 (PAR4; [2]) | concentration at which strong activation of PAR2 occurred (calcium flux) (PAR2; HeLa cells transfected with PAR2) [nM] | activating concentration relative to that needed for stimulation via mucunain, PAR2 (PAR2; [2]) | mean perceived intensity of itch and nociceptive sensation compared with a single spicule of native cowhage (human volunteers; nine human volunteers, FIG. 3A versus 3B) | itch rating by volunteers (human volunteers; single reconstituted spicule inserted approximately 0.2 mm into skin) | activation of PAR1 (calcium flux) (PAR1) |
| --- | --- | --- | --- | --- | --- | --- | --- | --- |
| B1 | had protease activity |  |  |  |  |  |  |  |
| B2 | had protease activity | 30 | at least ten-fold less | 30 | at least ten-fold less | similar | very strong | no activation |
